# Data published in patent US20240116985A1, “STAPLED PEPTIDES AND METHODS THEREOF” (priority 2020, published 2024).
# Starred links: 1 amine or outer side, 2 acyl side, 3 side chain; linkers in the order of their positions; H or OH if unused. Positions of bridges follow the written chain, without caps; N, C: chain ends. Non-standard residues stand in square brackets, D forms with d. Primed or numbered codes have the meaning given here. PyrS2″ = (S)-3-amino-1-((pent-4-en-1-yloxy)carbonyl)pyrrolidine-3-carboxylic acid (stapling residue), C=CCCCOC(=O)N1CC[C@@](N[*:1])(C(=O)[*:2])C1; B5(24) = 2-amino-2-(pent-4-en-1-yl)hept-6-enoic acid, 2,2-bis(4-pentenyl)glycine (stitching residue), C=CCCCC(CCCC=C)(N[*:1])C(=O)[*:2]; B5(4) = 2,2-bis(4-pentenyl)glycine = 2-amino-2-(pent-4-en-1-yl)hept-6-enoic acid (stitching residue), C=CCCCC(CCCC=C)(N[*:1])C(=O)[*:2]; B5(5) = 2,2-bis(4-pentenyl)glycine, 2-amino-2-(pent-4-en-1-yl)hept-6-enoic acid (stitching residue), C=CCCCC(CCCC=C)(N[*:1])C(=O)[*:2]; B5(31) = 2-amino-2-(pent-4-en-1-yl)hept-6-enoic acid (bis-pentenylglycine, stitching residue), C=CCCCC(CCCC=C)(N[*:1])C(=O)[*:2]; B5(3) = 2,2-bis(4-pentenyl)glycine (stitching residue), C=CCCCC(CCCC=C)(N[*:1])C(=O)[*:2]; Phe(3-CF3) = N[C@@H](Cc1cccc(C(F)(F)F)c1)C(=O)O; Phe(4-CF3) = N[C@@H](Cc1ccc(C(F)(F)F)cc1)C(=O)O; Ala(morpholin-4-yl) = N[C@@H](CN1CCOCC1)C(=O)O; Phe(3-OMe) = COc1cccc(C[C@H](N)C(=O)O)c1; Phe(2-Cl) = N[C@@H](Cc1ccccc1Cl)C(=O)O; 1Nal = N[C@@H](Cc1cccc2ccccc12)C(=O)O; 2Nal = N[C@@H](Cc1ccc2ccccc2c1)C(=O)O; Phe(2-F) = N[C@@H](Cc1ccccc1F)C(=O)O; Bta = N[C@@H](Cc1csc2ccccc12)C(=O)O; Lys(iPr) = CC(C)NCCCC[C@H](N)C(=O)O; αAllylPro = C=CC[C@@]1(C(=O)O)CCCN1; tBuAla = CC(C)(C)C[C@H](N)C(=O)O; 3Thi = N[C@@H](Cc1ccsc1)C(=O)O; Cha = N[C@@H](CC1CCCCC1)C(=O)O; hSer = N[C@@H](CCO)C(=O)O; Aib = CC(C)(N)C(=O)O
# B1: I-2355 (peptide)
# peptide: Ac-[αAllylPro]N[Cha][B5(4)]DQ[hSer]AFL[PyrS2″]F[Bta]Q-NH2
# modifications: staple 1-4, 4-11; also: later eluting isomer composition (HPLC), configuration not given here
# B2: I-1126 (peptide)
# peptide: Ac-[αAllylPro]D[Cha][B5(3)]DDAAFS[PyrS2″]F[Bta]Q-NH2
# modifications: staple 1-4, 4-11 (inferred); not fully specified (residue 9); printed as Ac-PL3-Asp-Cha-B5-Asp-Asp-Ala-Ala-4F3MeF-Ser-PyrS2-Phe-BztA-Gln-NH2
# B3: I-1120 (peptide)
# peptide: Ac-[αAllylPro]D[Cha][B5(3)]DDAAFS[PyrS2″][Phe(2-Cl)][Bta]Q-NH2
# modifications: staple 1-4, 4-11 (inferred); not fully specified (residue 9); printed as Ac-PL3-Asp-Cha-B5-Asp-Asp-Ala-Ala-4F3MeF-Ser-PyrS2-2C1F-BztA-Gln-NH2
# Molecular target: full-length beta-Catenin (Uniprot ID P35222) (Homo sapiens (Human)) (UniProt P35222)
# Experiment: fluorescence polarization competition; 10 nM full-length beta-catenin + 10 nM 5FAM-TCF4(10-53) probe; peptide titrated 10 uM to 5 nM
# Target sequence in this assay (P35222 2-781 limits assumed): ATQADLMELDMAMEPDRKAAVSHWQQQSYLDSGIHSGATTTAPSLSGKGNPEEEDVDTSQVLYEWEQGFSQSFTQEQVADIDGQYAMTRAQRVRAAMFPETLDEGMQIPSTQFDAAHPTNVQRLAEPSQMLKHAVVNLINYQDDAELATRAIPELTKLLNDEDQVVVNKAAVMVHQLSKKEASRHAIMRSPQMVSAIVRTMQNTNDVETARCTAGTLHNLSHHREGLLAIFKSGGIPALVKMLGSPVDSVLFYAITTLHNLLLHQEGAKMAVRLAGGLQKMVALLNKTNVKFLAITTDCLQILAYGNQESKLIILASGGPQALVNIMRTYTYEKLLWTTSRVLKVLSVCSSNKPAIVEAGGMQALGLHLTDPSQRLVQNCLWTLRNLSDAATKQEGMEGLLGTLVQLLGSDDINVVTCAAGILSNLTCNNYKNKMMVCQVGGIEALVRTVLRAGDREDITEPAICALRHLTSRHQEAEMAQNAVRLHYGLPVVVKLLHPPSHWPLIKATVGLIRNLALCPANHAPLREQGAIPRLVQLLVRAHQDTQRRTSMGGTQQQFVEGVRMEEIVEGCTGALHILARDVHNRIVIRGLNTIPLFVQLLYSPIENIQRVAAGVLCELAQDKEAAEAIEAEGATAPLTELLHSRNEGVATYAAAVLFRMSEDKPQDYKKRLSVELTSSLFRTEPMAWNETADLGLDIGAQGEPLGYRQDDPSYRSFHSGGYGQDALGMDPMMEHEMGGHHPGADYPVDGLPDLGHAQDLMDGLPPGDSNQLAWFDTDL
row,Binder,IC50
1,"Ac-[αAllylPro]N[Cha][B5(31)]D[hSer][Lys(iPr)]AFL[PyrS2″]F[Bta]Q-NH2 (staple 1-4, 4-11; also: staple isomer, earlier eluting HPLC peak) [I-2344]",0.586 µM
2,"Ac-[αAllylPro]D[tBuAla][B5(3)]NT[Aib]AFN[PyrS2″][3Thi][Bta]Q-NH2 (staple 1-4, 4-11) [I-2338]",0.063 µM
3,"Ac-[αAllylPro]N[Cha][B5(3)]DQ[Lys(iPr)]AFL[PyrS2″]F[Bta]K-NH2 (staple 1-4, 4-11) [I-2350]",0.063 µM
4,"Ac-[αAllylPro]N[Cha][B5(31)]DH[Lys(iPr)]AFL[PyrS2″]F[Bta]Q-NH2 (staple 1-4, 4-11; also: staple isomer, earlier eluting HPLC peak) [I-2348]",0.179 µM
5,"Ac-[αAllylPro]N[Cha][B5(31)]DK[Lys(iPr)]AFL[PyrS2″]F[Bta]Q-NH2 (staple 1-4, 4-11) [I-2347]",5.63 µM
6,"Ac-[αAllylPro]N[Cha][B5(31)]DK[Lys(iPr)]AFL[PyrS2″]F[Bta]Q-NH2 (staple 1-4, 4-11; also: staple isomer, earlier eluting HPLC peak) [I-2346]",0.422 µM
7,"Ac-[αAllylPro]D[tBuAla][B5(31)]NTAAFT[PyrS2″][3Thi][Bta]H-NH2 (staple 1-4, 4-11) [I-2337]",0.311 µM
8,"Ac-[αAllylPro][hSer][Cha][B5(4)]DQ[Lys(iPr)]AFL[PyrS2″]F[Bta]Q-NH2 (staple 1-4, 4-11) [I-2353]",2.76 µM
9,"Ac-[αAllylPro]D[tBuAla][B5(31)]NTA[Aib]FN[PyrS2″][3Thi][Bta]Q-NH2 (staple 1-4, 4-11) [I-2339]",2.82 µM
10,"Ac-[αAllylPro]N[Cha][B5(4)]DQ[Lys(iPr)]AFL[PyrS2″]F[Bta]H-NH2 (staple 1-4, 4-11) [I-2351]",0.187 µM
11,"Ac-[αAllylPro]N[Cha][B5(3)]DQ[hSer]AFL[PyrS2″]F[Bta]Q-NH2 (staple 1-4, 4-11; also: earlier eluting isomer, configuration not given here) [I-2354]",0.1 µM
12,"Ac-[αAllylPro]N[Cha][B5(31)]DH[Lys(iPr)]AFL[PyrS2″]F[Bta]Q-NH2 (staple 1-4, 4-11) [I-2349]",1.16 µM
13,B1,0.417 µM
14,"Ac-[αAllylPro]N[Cha][B5(4)]DQ[Lys(iPr)]AFL[PyrS2″]F[Bta]A-NH2 (staple 1-4, 4-11) [I-2352]",0.211 µM
15,"Ac-[αAllylPro]N[Cha][B5(31)]D[hSer][Lys(iPr)]AFL[PyrS2″]F[Bta]Q-NH2 (staple 1-4, 4-11) [I-2345]",1.27 µM

# Molecular target: full-length beta-Catenin (Uniprot ID P35222) (Homo sapiens (Human)) (UniProt P35222)
# Experiment: fluorescence polarization competition; 10 nM full-length beta-catenin + 10 nM 5FAM-TCF4 10-53 as competitor probe
# Target sequence in this assay (P35222 2-781 limits assumed): as above
row,Binder,EC50
1,"Ac-[αAllylPro]F[tBuAla][B5(5)]DDAADN[PyrS2″][3Thi][Bta]Q-OH (staple 1-4, 4-11) [I-1027]",1.14 µM
2,"Ac-[αAllylPro]D[tBuAla][B5(5)]DEAAFL[PyrS2″][Phe(2-Cl)][Bta][dT]-NH2 (staple 1-4, 4-11) [I-1039]",0.057 µM
3,"Ac-[αAllylPro]D[tBuAla][B5(5)]DEAAFF[PyrS2″][Phe(2-Cl)][Bta][dT]-NH2 (staple 1-4, 4-11) [I-1038]",0.101 µM
4,"Ac-[αAllylPro]D[tBuAla][B5(5)]DNAAFT[PyrS2″][Phe(2-F)][Bta]S-NH2 (staple 1-4, 4-11) [I-1024]",0.043 µM

# Molecular target: full-length beta-Catenin (Uniprot ID P35222) (Homo sapiens (Human)) (UniProt P35222)
# Experiment: fluorescence polarization competition, full-length beta-catenin, competitor 5FAM-TCF4 10-53
# Target sequence in this assay (P35222 whole entry): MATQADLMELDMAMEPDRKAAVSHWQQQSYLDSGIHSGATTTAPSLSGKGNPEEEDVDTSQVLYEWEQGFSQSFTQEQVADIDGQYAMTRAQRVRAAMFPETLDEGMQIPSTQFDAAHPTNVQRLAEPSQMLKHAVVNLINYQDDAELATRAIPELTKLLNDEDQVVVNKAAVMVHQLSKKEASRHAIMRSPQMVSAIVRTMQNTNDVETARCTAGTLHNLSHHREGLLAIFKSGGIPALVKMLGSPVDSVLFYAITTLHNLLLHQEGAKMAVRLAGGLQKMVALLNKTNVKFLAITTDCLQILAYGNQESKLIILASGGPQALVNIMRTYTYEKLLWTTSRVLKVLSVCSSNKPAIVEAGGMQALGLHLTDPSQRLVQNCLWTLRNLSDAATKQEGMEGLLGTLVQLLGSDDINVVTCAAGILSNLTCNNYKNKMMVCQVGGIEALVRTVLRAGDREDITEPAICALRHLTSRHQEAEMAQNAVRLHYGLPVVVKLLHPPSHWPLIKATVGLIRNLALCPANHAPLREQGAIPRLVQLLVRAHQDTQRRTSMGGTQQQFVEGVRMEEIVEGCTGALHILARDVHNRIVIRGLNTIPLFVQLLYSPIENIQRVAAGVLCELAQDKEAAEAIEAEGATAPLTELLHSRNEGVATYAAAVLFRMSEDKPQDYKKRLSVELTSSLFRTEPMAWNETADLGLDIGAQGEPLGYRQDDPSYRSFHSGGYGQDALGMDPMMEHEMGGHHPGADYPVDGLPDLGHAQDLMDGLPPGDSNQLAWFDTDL
row,Binder,IC50
1,B2,0.032 µM
2,B3,0.085 µM
3,"Ac-[αAllylPro]D[Cha][B5(3)]DDAA[Phe(3-CF3)]S[PyrS2″]F[Bta]Q-NH2 (staple 1-4, 4-11) [I-1125]",0.016 µM
4,"Ac-[αAllylPro]D[Cha][B5(3)]DDAA[Phe(3-OMe)]S[PyrS2″]F[Bta]Q-NH2 (staple 1-4, 4-11) [I-1124]",0.012 µM
5,"Ac-[αAllylPro]D[tBuAla][B5(24)]DDAAFN[PyrS2″][Phe(2-Cl)][Bta][Lys(iPr)]-NH2 (staple 1-4, 4-11) [I-1130]",0.006 µM
6,"Ac-[αAllylPro]D[1Nal][B5(4)]DDAAFL[PyrS2″][Phe(2-Cl)][Bta]S-NH2 (staple 1-4, 4-11) [I-1116]",0.04 µM
7,"Ac-[αAllylPro]D[tBuAla][B5(4)]DDAAFN[PyrS2″][Phe(2-Cl)][Bta][Ala(morpholin-4-yl)]-NH2 (staple 1-4, 4-11; also: earlier eluting staple isomer) [I-1133]",0.005 µM
8,"Ac-[αAllylPro]D[tBuAla][B5(24)]DD[Lys(iPr)]AFN[PyrS2″][Phe(2-Cl)][Bta]Q-NH2 (staple 1-4, 4-11) [I-1131]",0.007 µM
9,"Ac-[αAllylPro]D[Cha][B5(4)]DDAA[Phe(3-CF3)]S[PyrS2″][Phe(2-Cl)][Bta]Q-NH2 (staple 1-4, 4-11) [I-1119]",0.026 µM
10,"Ac-[αAllylPro]D[Cha][B5(4)]DDAA[Phe(3-OMe)]S[PyrS2″][Phe(2-Cl)][Bta]Q-NH2 (staple 1-4, 4-11) [I-1118]",0.024 µM
11,"Ac-[αAllylPro]D[2Nal][B5(4)]DDAAFL[PyrS2″][Phe(2-Cl)][Bta]S-NH2 (staple 1-4, 4-11) [I-1117]",0.055 µM
12,"Ac-[αAllylPro]D[Cha][B5(4)]DDAAFS[PyrS2″][Phe(2-Cl)][Bta]T-NH2 (staple 1-4, 4-11) [I-1135]",0.02 µM
13,"Ac-[αAllylPro]D[tBuAla][B5(4)]DDAAFN[PyrS2″][Phe(2-Cl)][Bta][Ala(morpholin-4-yl)]-NH2 (staple 1-4, 4-11; also: later eluting staple isomer) [I-1134]",0.006 µM
14,"Ac-[αAllylPro]D[Cha][B5(24)]DDAAFS[PyrS2″][Phe(2-Cl)][Bta][dT]-NH2 (staple 1-4, 4-11) [I-1136]",0.016 µM
15,"Ac-[αAllylPro]D[tBuAla][B5(24)]DDA[Lys(iPr)]FN[PyrS2″][Phe(2-Cl)][Bta]Q-NH2 (staple 1-4, 4-11) [I-1132]",0.021 µM

# Molecular target: full-length beta-Catenin (Uniprot ID P35222) (Homo sapiens (Human)) (UniProt P35222)
# Experiment: fluorescence polarization competition; full-length beta-catenin, competitor 5FAM-TCF4 10-53
# Target sequence in this assay (P35222 whole entry): as above
row,Binder,IC50
1,"Ac-[αAllylPro]D[tBuAla][B5(5)]DEAAFL[PyrS2″][Phe(2-Cl)][Bta][dT]-NH2 (staple 1-4, 4-11) [I-1039]",0.057 µM
2,"Ac-[αAllylPro]D[tBuAla][B5(5)]DEAAFF[PyrS2″][Phe(2-Cl)][Bta][dT]-NH2 (staple 1-4, 4-11) [I-1038]",0.101 µM
3,"Ac-[αAllylPro]D[tBuAla][B5(5)]DNAAFT[PyrS2″][Phe(2-F)][Bta]S-NH2 (staple 1-4, 4-11) [I-1024]",0.043 µM

# Molecular target: full-length beta-Catenin (Uniprot ID P35222) (Homo sapiens (Human)) (UniProt P35222)
# Experiment: fluorescence polarization competition, 5FAM-TCF4 10-53 probe on full-length beta-catenin
# Target sequence in this assay (P35222 2-781 limits assumed): as the sequence (P35222 2-781 limits assumed) above
row,Binder,EC50
1,B2,0.032 µM
2,B3,0.085 µM
3,"Ac-[αAllylPro]D[Cha][B5(3)]DDAA[Phe(3-CF3)]S[PyrS2″]F[Bta]Q-NH2 (staple 1-4, 4-11) [I-1125]",0.016 µM
4,"Ac-[αAllylPro]D[Cha][B5(3)]DDAA[Phe(3-OMe)]S[PyrS2″]F[Bta]Q-NH2 (staple 1-4, 4-11) [I-1124]",0.012 µM
5,"Ac-[αAllylPro]D[tBuAla][B5(24)]DDAAFN[PyrS2″][Phe(2-Cl)][Bta][Lys(iPr)]-NH2 (staple 1-4, 4-11) [I-1130]",0.006 µM
6,"Ac-[αAllylPro]D[1Nal][B5(4)]DDAAFL[PyrS2″][Phe(2-Cl)][Bta]S-NH2 (staple 1-4, 4-11) [I-1116]",0.04 µM
7,"Ac-[αAllylPro]D[tBuAla][B5(4)]DDAAFN[PyrS2″][Phe(2-Cl)][Bta][Ala(morpholin-4-yl)]-NH2 (staple 1-4, 4-11; also: earlier eluting staple isomer) [I-1133]",0.005 µM
8,"Ac-[αAllylPro]D[tBuAla][B5(24)]DD[Lys(iPr)]AFN[PyrS2″][Phe(2-Cl)][Bta]Q-NH2 (staple 1-4, 4-11) [I-1131]",0.007 µM
9,"Ac-[αAllylPro]D[Cha][B5(4)]DDAA[Phe(3-CF3)]S[PyrS2″][Phe(2-Cl)][Bta]Q-NH2 (staple 1-4, 4-11) [I-1119]",0.026 µM
10,"Ac-[αAllylPro]D[Cha][B5(4)]DDAA[Phe(3-OMe)]S[PyrS2″][Phe(2-Cl)][Bta]Q-NH2 (staple 1-4, 4-11) [I-1118]",0.024 µM
11,"Ac-[αAllylPro]D[2Nal][B5(4)]DDAAFL[PyrS2″][Phe(2-Cl)][Bta]S-NH2 (staple 1-4, 4-11) [I-1117]",0.055 µM
12,"Ac-[αAllylPro]D[Cha][B5(4)]DDAAFS[PyrS2″][Phe(2-Cl)][Bta]T-NH2 (staple 1-4, 4-11) [I-1135]",0.02 µM
13,"Ac-[αAllylPro]D[tBuAla][B5(4)]DDAAFN[PyrS2″][Phe(2-Cl)][Bta][Ala(morpholin-4-yl)]-NH2 (staple 1-4, 4-11; also: later eluting staple isomer) [I-1134]",0.006 µM
14,"Ac-[αAllylPro]D[Cha][B5(24)]DDAAFS[PyrS2″][Phe(2-Cl)][Bta][dT]-NH2 (staple 1-4, 4-11) [I-1136]",0.016 µM
15,"Ac-[αAllylPro]D[tBuAla][B5(24)]DDA[Lys(iPr)]FN[PyrS2″][Phe(2-Cl)][Bta]Q-NH2 (staple 1-4, 4-11) [I-1132]",0.021 µM
